Experimental data as given in article PMC5007650, “Crystal structure of the two-subunit tRNA m^1A58 methyltransferase TRM6-TRM61 from Saccharomyces cerevisiae” (Scientific Reports, 2016).

T1: TRM6 from Saccharomyces cerevisiae (S. cerevisiae, UniProt P41814 1-478)
T1 construct: TRM6, non-catalytic subunit of the tRNA m1A58 methyltransferase, S. cerevisiae, full length; A selenomethionine derivative was used for phasing only; also called TRM6 subunit; source: bacteria, expression plasmid pETDuet-TRM6-TRM61, purified as the TRM6-TRM61 complex (Ni2+-NTA, Superdex 200)
T1 sequence (looked up): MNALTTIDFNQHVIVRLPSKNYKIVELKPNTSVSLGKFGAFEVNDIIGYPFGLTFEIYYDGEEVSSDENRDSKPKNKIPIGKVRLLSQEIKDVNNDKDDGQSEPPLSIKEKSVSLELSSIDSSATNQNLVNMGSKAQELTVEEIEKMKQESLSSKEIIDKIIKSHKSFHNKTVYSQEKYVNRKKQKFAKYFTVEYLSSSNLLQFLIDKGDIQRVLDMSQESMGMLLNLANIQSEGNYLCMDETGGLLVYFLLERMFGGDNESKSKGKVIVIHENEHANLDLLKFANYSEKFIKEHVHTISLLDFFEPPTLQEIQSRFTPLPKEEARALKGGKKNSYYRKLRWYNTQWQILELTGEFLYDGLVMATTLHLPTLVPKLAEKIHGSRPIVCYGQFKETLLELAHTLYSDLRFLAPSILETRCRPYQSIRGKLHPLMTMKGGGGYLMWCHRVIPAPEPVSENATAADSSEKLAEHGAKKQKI

B1: TRM61 from Saccharomyces cerevisiae (enzyme, S. cerevisiae, UniProt P46959 1-383, looked up)
chain: MSTNCFSGYKDLIKEGDLTLIWVSRDNIKPVRMHSEEVFNTRYGSFPHKDIIGKPYGSQIAIRTKGSNKFAFVHVLQPTPELWTLSLPHRTQIVYTPDSSYIMQRLNCSPHSRVIEAGTGSGSFSHAFARSVGHLFSFEFHHIRYEQALEEFKEHGLIDDNVTITHRDVCQGGFLIKKGDTTSYEFGNNETAASLNANVVFLDLPAPWDAIPHLDSVISVDEKVGLCCFSPCIEQVDKTLDVLEKYGWTDVEMVEIQGRQYESRRQMVRSLNDALERLRDIKRHKLQGVERRKRMFNNTIDSNDEKVGKRNEDGVPLTEKAKFNPFGKGSRIKEGDSNYKWKEVTKMEAEIKSHTSYLTFAFKVVNRSRDDEKVNEILRSTEK
notes: TRM61, catalytic subunit of the tRNA m1A58 methyltransferase, S. cerevisiae, full length; also called TRM61 subunit; catalytic subunit; source: bacteria, expression plasmid pETDuet-TRM6-TRM61, purified as the TRM6-TRM61 complex (Ni2+-NTA, Superdex 200)
B2: TRM6-TRM61 heterodimer from Saccharomyces cerevisiae (complex, S. cerevisiae)
chain 1: T1 sequence (looked up)
chain 2: B1 chain
notes: TRM6, S. cerevisiae, full length; as the chain of m1; TRM61, S. cerevisiae, full length; as the chain of m2; 1:1 heterodimer of TRM6 and TRM61 (the asymmetric unit of the crystal); two of them form the 2:2 heterotetramer; also called TRM6-TRM61 holoenzyme; TRM6-TRM61 complex; source: bacteria, expression plasmid pETDuet-TRM6-TRM61, purified (Ni2+-NTA, Superdex 200)

How the values were obtained:
[1] = target: T1, TRM6 from Saccharomyces cerevisiae; assay: crystal structure; sitting-drop vapour diffusion at 293 K, 0.1 M HEPES pH 7.5, 2% MPD, 10% PEG 6000; apo TRM6-TRM61 and TRM6-TRM61 with SAM, each at 2.2 Å; heterotetramer from symmetry-related molecules; details: both partners purified
[2] = target: the molecule itself; assay: as above

| Binder | binding result [1] | binding result [2] |
| --- | --- | --- |
| B1 | binds |  |
| B2 |  | binds |
